Experiment [1] deals with T1, humanized Fc-tagged human IL-4R recombinant protein (h-IL-4R-Fc) (human, UniProt P24394 26-232).
T1 construct: range 1-232; The printed range starts at Met1, so it includes the signal peptide of the construct; also called Human IL-4R-Fc; not shown: Fc tag
Put plainly: blocking ELISA: human IL-4R-Fc coated, antibody blocks the binding of IL-4. On the procedure:
Human IL-4R-Fc protein was coated on a 96-well microplate, 100 μL per well at a concentration of 0.5 μg/mL, and incubated overnight at 4° C. The plate was washed three times with washing buffer at 250 μL per well. A blocking solution was added at 200 μL per well and the plate was incubated at room temperature for 2 h. The plate was washed three times with washing buffer at 250 μL per well. Anti-IL-4R antibody to be tested diluted in diluent was added at 100 μL per well, and the plate was incubated at room temperature for 1 h. The plate was washed three times with washing buffer at 250 μL per well. […] HRP-labeled Neutravidin diluted in a diluent at 1:5000 was added, and the plate was incubated at room temperature for 1 h. The plate was washed three times with washing buffer at 250 μL per well. TMB was added at 100 μL per well, and the mixture was reacted for 15 min in the dark. 0.16 M/L sulfuric acid was added at 50 μL per well.
On the technique in general: In an ELISA, binding on a coated surface is turned into a signal by an enzyme label.

Experiment [2] concerns the target human IL-4R on cells (HEK-Blue IL-4 cells, TF-1 cells) (human, UniProt P24394 26-825). Put plainly: cell-based or functional assay.
For experiment [3], the target named is T2, his-tagged mouse IL-4R recombinant protein (m-IL-4R-his) (mouse, UniProt P16382 26-233).
T2 construct: range 26-233; also called Murine IL-4R-his; not shown: his tag
T2 sequence (looked up): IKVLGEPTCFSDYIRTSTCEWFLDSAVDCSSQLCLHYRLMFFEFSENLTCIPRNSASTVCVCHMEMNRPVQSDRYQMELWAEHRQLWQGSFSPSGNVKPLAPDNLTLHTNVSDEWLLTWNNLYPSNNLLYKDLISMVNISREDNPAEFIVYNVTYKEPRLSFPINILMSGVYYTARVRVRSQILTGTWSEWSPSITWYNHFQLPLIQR
Kind of experiment: ELISA, IL-4R-his coated on the plate.

In experiment [4] the target is T3, his-tagged human IL-4R recombinant protein (h-IL-4R-his) (human, UniProt P24394 26-232).
T3 construct: range 26-232; Made by Acrobiosystems in HEK293; also called Human IL-4R-his; not shown: his tag
Put plainly: binding ELISA, human IL-4R-his coated. As to the method:
ELISA experiment was used to detect binding properties of anti-IL-4R antibodies. A microplate was coated with his-tagged IL-4R recombinant protein. After the antibody was added to each well, the activity of the binding of the antibody to the antigen was detected by adding a secondary antibody (HRP-conjugated anti-primary antibody Fc antibody) and HRP substrate TMB.
Human or rhesus IL-4R-his protein was coated on a 96-well microplate, 100 μL per well at a concentration of 0.5 μg/mL, and incubated overnight at 4° C. The plate was washed three times with washing buffer at 250 μL per well. A blocking solution was added at 200 μL per well and the plate was incubated at room temperature for 2 h. The plate was washed three times with washing buffer at 250 μL per well. Anti-IL-4R antibody to be tested diluted in diluent was added at 100 μL per well. The plate was incubated at room temperature for 1 h. The plate was washed three times with washing buffer at 250 μL per well. HRP-labeled goat anti-human IgG secondary antibody diluted at 1:20000 with diluent was added at 100 μL per well. The plate was incubated at room temperature for 1 h. The plate was washed three times with washing buffer at 250 μL per well. TMB was added at 100 μL per well, and the mixture was reacted for 15 min in the dark. 0.16 M/L sulfuric acid was added at 50 μL per well. The OD value was read at 450 nm by a Thermo MultiSkanFc microplate reader and the binding EC₅₀ value of the anti-IL-4R antibody to IL-4R was calculated.

B1: murine monoclonal antibody 7B10 (antibody, V domains shown)
VH: QVQLQQPGTELLKPGASVSLSCKASGYTFTSYWMHWVKQRPGQGLEWIGLIHPNSDTTKFSENFKTRATLTIDKSSSTAYMKLSSLTSEDSAVYYCAKSKIITTIVARHWYFDVWGTGTTVTVSS
VL: DIVLTQSPPSLAVSLGQRATISCKASQSVDYGGDSYMNWYQQKLGQPPKVLIYAASNLESGIPARFSGSGSGTDFTLNIHPVEEEDVATYYCQHSNENPPTFGGGTKLEIK
notes: also called hybridoma 7B10
By IC50 is commonly meant the concentration that gives 50% inhibition. The term EC50 denotes the concentration needed to bring the measured effect to its halfway point. Take B1: the half-inhibitory concentration (IC50) in experiment [1] amounted to 0.0299 µg/mL. In experiment [2], the “IC50 for blocking binding of HEK293-Blue IL-4 cells (to IL-4)” value stood at 0.0798 µg/mL and the “IC50 for inhibiting IL-4-related proliferation of TF-1 cells” value is 0.418 µg/mL. The binding result in experiment [3] was “no binding”. The EC50 in experiment [4] turned out to be 0.0458 µg/mL.

The values are drawn from patent US20230088052A1 (JIANGSU HENGRUI PHARMACEUTICALS, published 2023).
